According to patent US20190330277A1 (PIRBRIGHT INSTITUTE, published 2019):

B1: D25 antibody (antibody, V domains shown)
VH: QVQLVQSGAEVKKPGSSVMVSCQASGGPLRNYIINWLRQAPGQGPEWMGGIIPVLGTVHYAPKFQGRVTITADESTDTAYIHLISLRSEDTAMYYCATETALVVSTTYLPHYFDNWGQGTLVTVSS
VL: DIQMTQSPSSLSAAVGDRVTITCQASQDIVNYLNWYQQKPGKAPKLLIYVASNLETGVPSRFSGSGSGTDFSLTISSLQPEDVATYYCQQYDNLPLTFGGGTKVEIK
notes: also called mAb D25
B2: MPE8 antibody (antibody, V domains shown)
VH: EVQLVESGGGLVKPGGSLRLSCAASGFTFSSYSMNWVRQAPGKGLEWVSSISASSSYSDYADSAKGRFTISRDNAKTSLFLQMNSLRAEDTAIYFCARARATGYSSITPYFDIWGQGTLVTVSS
VL: QSVVTQTPSVSGAPGQRVTISCTGSSSNIGAGYDVHWYQQLPGTAPKLLIYDNNNRPSGVPDRFSASKSGTSASLAITGLQAEDEADYYCQSYDRNLSGVFGTGTKVTVL
notes: also called mAb MPE8

How the values were obtained:
391-2_DS-Cav1-tzsc2 = biological target: T1, 391-2_DS-Cav1-tzsc2; test: ELISA, variant from culture supernatant on Ni-NTA plate [continued]
T1 construct: also called sc-v57
Experimental: (§1) Initial assessment of all constructs were performed using a 96-well microplate format for high throughput expression followed by an ELISA-based antigenic evaluation as described previously 17. […] Plasmid DNA and TrueFect-Max (United BioSystems, MD) were mixed and added to the growing cells, and the 96-well plate incubated at 37° C., 5% CO2. One day post transfection, enriched medium (high glucose DMEM plus 25% ultra-low IgG fetal bovine serum, 2× nonessential amino acids, 1× glutamine) was added to each well, and the 96-well plate was returned to the incubator for continuous culture.

391-2-DS-Cav1-BZGJ9_gyc4 = biological target: T2, 391-2-DS-Cav1-BZGJ9_gyc4; test: as above
T2 construct: also called sc-v53
Experimental: as §1

391-2_DS-Cav1-tzsc9 = biological target: T3, 391-2_DS-Cav1-tzsc9; test: as above
T3 construct: also called sc-v52
Experimental: as §1

KXds2 = biological target: T4, KXds2; test: as above
T4 construct: also called sc-v50
Experimental: as §1

[1] = biological target: T5, sc9-10_DS-CAV1_bRSV(RB94)_Fd_(hRSV-leader)_ig1; test: as above
T5 construct: also called sc-v43
Experimental: as §1

391-2-DS-Cav1-SC-IP-1 = biological target: T6, 391-2-DS-Cav1-SC-IP-1; test: as above
T6 construct: also called sc-v49
Experimental: as §1

391-2-DS-Cav1- F-SC_11R = biological target: T7, 391-2-DS-Cav1- F-SC_11R; test: as above
T7 construct: also called sc-v54
Experimental: as §1

391-2-DS-Cav1-IP-2 = biological target: T8, 391-2-DS-Cav1-IP-2; test: as above
T8 construct: also called sc-v40
Experimental: as §1

391-2-DS-Cav1-IP-7 = biological target: T9, 391-2-DS-Cav1-IP-7; test: as above
T9 construct: also called sc-v46
Experimental: as §1

391-2-DS-Cav1-BZGJ9_gyc2 = biological target: T10, 391-2-DS-Cav1-BZGJ9_gyc2; test: as above
T10 construct: also called sc-v48
Experimental: as §1

391-2_DS-Cav1-tzsc4 = biological target: T11, 391-2_DS-Cav1-tzsc4; test: as above
T11 construct: also called sc-v39
Experimental: as §1

[2] = biological target: T12, 391-2-DS-Cav1-BZGJ9 Long K226L; test: ELISA, variant from culture supernatant on Ni-NTA plate;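 further: antigenic evaluation by ELISA of constructs expressed at small scale in 96-well plates after transient plasmid transfection of cells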
T12 construct: also called sc-v12
Experimental: as §1

391-2_DS-Cav1-tzsc3 = biological target: T13, 391-2_DS-Cav1-tzsc3; test: as above
T13 construct: also called sc-v33
Experimental: as §1

391-2-DS-Cav1-BZGJ9_gyc7 = biological target: T14, 391-2-DS-Cav1-BZGJ9_gyc7; test: as above
T14 construct: also called sc-v27
Experimental: as §1

[3] = biological target: T15, RB94 site 0 hRSV bovSurf DS-Cav1-BZGJ9 Long FdPL; test: as above
T15 construct: also called sc-v7
Experimental: as §1

391-2wt-F_SC_11R = test: as above
Experimental: as §1

[4] = biological target: T16, sc9-10_DS-CAV1_bRSV(RB94)_Fd_pm1_ig1; test: as above
T16 construct: also called sc-v11
Experimental: as §1

391-2_DS-Cav1-tzsc7 = biological target: T17, 391-2_DS-Cav1-tzsc7; test: as above
T17 construct: also called sc-v21
Experimental: as §1

[5] = biological target: T18, sc9-10_DS-CAV1_bRSV(RB94)_Fd_fp2_ig1; test: as above
T18 construct: also called sc-v34
Experimental: as §1

[6] = biological target: T19, sc9-10_DS-CAV1_bRSV(RB94)_Fd_hp1_ig1; test: as above
T19 construct: also called sc-v2
Experimental: as §1

KXint1 = biological target: T20, KXint1; test: as above
T20 construct: also called sc-v29
Experimental: as §1

[7] = biological target: T21, 391-2 hu/bov-DS-Cav1-BZGJ9 Long; test: as above
T21 construct: also called sc-v18
Experimental: as §1

KXlinker1 = biological target: T22, KXlinker1; test: as above
T22 construct: also called sc-v30
Experimental: as §1

[8] = biological target: T23, sc9-10_DS-CAV1_bRSV(RB94)_Fd_pm1_fp2_ig1; test: as above
T23 construct: also called sc-v24
Experimental: as §1

[9] = biological target: T24, sc9-10_DS-CAV1_bRSV(RB94)_Fd_hp2_fp1_ig1; test: as above
T24 construct: also called sc-v5
Experimental: as §1

391-2-DS-Cav1-BZGJ9_gyc5 = biological target: T25, 391-2-DS-Cav1-BZGJ9_gyc5; test: as above
T25 construct: also called sc-v10
Experimental: as §1

391-2_DS-Cav1-tzsc5 = biological target: T26, 391-2_DS-Cav1-tzsc5; test: as above
T26 construct: also called sc-v25
Experimental: as §1

[10] = biological target: T27, sc9-10_DS-CAV1_bRSV(RB94)_Fd_hp2_ig1; test: as above
T27 construct: also called sc-v3
Experimental: as §1

391-2-DSCav1- F-SC_7R = biological target: T28, 391-2-DSCav1- F-SC_7R; test: as above
T28 construct: also called sc-v36
Experimental: as §1

[11] = biological target: T29, RB94 site 0 hRSV DS-Cav1 Long FdPL; test: as above
T29 construct: also called sc-v22
Experimental: as §1

KXlinker2 = biological target: T30, KXlinker2; test: as above
T30 construct: also called sc-v35
Experimental: as §1

[12] = biological target: T31, sc9-10_DS-CAV1_bRSV(RB94)_Fd_pm1_fp1_ig1; test: as above
T31 construct: also called sc-v15
Experimental: as §1

[13] = biological target: T32, RB94 site 0 hRSV bovSurf DS-Cav1 Long FdPL; test: as above
T32 construct: also called sc-v14
Experimental: as §1

Binder | ELISA binding value (391-2_DS-Cav1-tzsc2) | ELISA binding value (391-2-DS-Cav1-BZGJ9_gyc4) | ELISA binding value (391-2_DS-Cav1-tzsc9) | ELISA binding value (KXds2) | ELISA binding value [1] | ELISA binding value (391-2-DS-Cav1-SC-IP-1) | ELISA binding value (391-2-DS-Cav1- F-SC_11R) | ELISA binding value (391-2-DS-Cav1-IP-2) | ELISA binding value (391-2-DS-Cav1-IP-7) | ELISA binding value (391-2-DS-Cav1-BZGJ9_gyc2) | ELISA binding value (391-2_DS-Cav1-tzsc4) | ELISA binding value [2] | ELISA binding value (391-2_DS-Cav1-tzsc3) | ELISA binding value (391-2-DS-Cav1-BZGJ9_gyc7) | ELISA binding value [3] | ELISA binding value (391-2wt-F_SC_11R) | ELISA binding value [4] | ELISA binding value (391-2_DS-Cav1-tzsc7) | ELISA binding value [5] | ELISA binding value [6] | further results
B1 | 0.0883 | 0.138 | 0.132 | 0.109 | 0.197 | 0.0985 | 0.161 | 0.197 | 0.201 | 0.144 | 0.219 | 1.92 | 0.383 | 0.732 | 2.21 | 0.739 | 1.86 | 0.997 | 0.299 | 2.44 | ELISA binding value (KXint1): 0.416; ELISA binding value [7]: 1.39; ELISA binding value (KXlinker1): 0.399; ELISA binding value [8]: 1.01; ELISA binding value [9]: 2.17; ELISA binding value (391-2-DS-Cav1-BZGJ9_gyc5): 1.93; ELISA binding value (391-2_DS-Cav1-tzsc5): 0.662; ELISA binding value [10]: 2.43; ELISA binding value (391-2-DSCav1- F-SC_7R): 0.225; ELISA binding value [11]: 1.02; ELISA binding value (KXlinker2): 0.321; ELISA binding value [12]: 1.67; ELISA binding value [13]: 1.7
B2 | 0.109 | 0.0901 | 0.1 | 0.143 | 0.105 | 0.155 | 0.0668 | 0.217 | 0.0761 | 0.12 | 0.263 | 1.78 | 0.433 | 0.821 | 2.14 | 0.887 | 1.87 | 1.5 | 0.464 | 2.18 | ELISA binding value (KXint1): 0.599; ELISA binding value [7]: 1.32; ELISA binding value (KXlinker1): 0.544; ELISA binding value [8]: 0.973; ELISA binding value [9]: 2.25; ELISA binding value (391-2-DS-Cav1-BZGJ9_gyc5): 1.8; ELISA binding value (391-2_DS-Cav1-tzsc5): 1.22; ELISA binding value [10]: 2.21; ELISA binding value (391-2-DSCav1- F-SC_7R): 0.312; ELISA binding value [11]: 1.39; ELISA binding value (KXlinker2): 0.361; ELISA binding value [12]: 1.73; ELISA binding value [13]: 1.84
